The values that follow come from US20250236667A1, “ANTIBODIES TO MUTANT CALRETICULIN AND USES THEREOF” (CENTRAL ADELAIDE LOCAL HEALTH NETWORK INC, priority 2021, published 2025).

Common to all, as to format: cell-based, human
The test system of experiment [1] is wild type TF-1 TpoR expressing cells. Briefly: Flow cytometry of 4D7 binding to the cell surface, wild type cells. The settings on record: PE-conjugated 4D7; wild type TF-1 TpoR cells. In general terms: In flow cytometry, cells or beads pass a laser one at a time.
Experiment [2] concerns TF-1 TpoR CALR^del61 and TF-1 TpoR CALR^del52 cells. Briefly: Western blot of caspase 3 cleavage. The settings on record: after 4D7 treatment, 20 μg/mL. How it is done:
A. Cell extracts blotted for phospho-STAT5, total STAT5, phospho-ERK, total ERK and actin from TF-1 TpoR cells after incubation with 10 or 20 μg/mL 4D7 or IgG for 4 or 8 hours, in presence of TPO. The last line indicates TPO withdrawal. B. Similar experiment using TPO-independent TF-1 TpoR CALR^del61 cells. C. Similar experiment using TPO-independent TF-1 TpoR CALR^del52 cells at 8 hours. D. Fraction of apoptotic sub-Go population of TF-1 TpoR CALR^del61 cells after 48 hours of 4D7 or IgG treatment (n=3). E. Western blot showing caspase 3 cleavage occurring within 24 hours of TPO withdrawal in TPO dependent TF-1 TpoR cells. An increase in cleaved caspase 3 is observed after 48 hours of treatment with 20 μg/mL 4D7 in TF-1 TpoR CALR^del61 and TF-1 TpoR CALR^del52 cells. F. Western blot of TpoR immunoprecipitation under non-reducing conditions showing associated CALR 50 kDa monomers and 100 kDa dimers (arrowheads) present only in TF-1 TpoR CALR^del61 disrupted by 8 hour treatment with 20 μg/mL 4D7 but not PBS or 20 μg/mL IgG. CALR monomers & dimers are detectable by polyclonal anti-wild type CALR or anti-mutant CALR monoclonal antibodies. Arrowheads, detected mutant CALR protein: asterisk, non-specific bands. G. Proposed model for the mechanism of action of 4D7 on mutant CALR. […]
(In general: In western blotting, separated proteins are transferred to a membrane and probed.)

The test system of the next experiment is JAK2 V617F SET2 cells. In words: Cell proliferation, trypan blue exclusion. Conditions: 2, 10 or 20 μg/mL. How it is done: (§1) A. Cytokine dependent TF-1 TpoR cells with an overexpression of WT CALR cultured in the absence of TPO, 10 ng/ml hTPO and 10 or 20 μg/mL 4D7 anti-mutant CALR antibody or 20 μg/mL control IgG antibody for 5 days and the number of trypan blue negative cells were counted every 24 hours (n=3). B. Cytokine dependent TF-1 CALR^del52 cells, lacking TpoR were cultured in the presence of 2 ng/mL GM-CSF and 10 or 20 μg/mL 4D7 or 20 μg/mL control IgG antibody (n=3). C. Cytokine dependent TF-1 CALR^del61 cells, lacking TpoR were cultured in the presence of 2 ng/ml GM-CSF and 10 or 20 μg/mL 4D7 or 20 μg/mL control IgG antibody (n=3). D. MARIMO cells from which the CALR^del61 mutation was originally amplified were cultured in the presence of 2, 10 or 20 μg/mL 4D7 or 20 μg/mL control IgG antibody (n=3). E. Cytokine independent SET2 cells which harbour the pathogenic JAK2^V617F mutation were cultured in the presence of 2, 10 or 20 μg/mL 4D7 or 20 μg/mL control IgG antibody (n=3). F. Cytokine independent TF-1 PTPN11^E76K cells were cultured in the presence of 10 or 20 μg/mL 4D7 or 20 μg/mL control IgG antibody (n=3).
(§2) In brief, cells were seeded at 5×10^4/mL in standard growth media, with any necessary cytokines, and the addition of 20 μg/mL IgG or 2, 10 or 20 μg/mL 4D7. Cells were seeded in triplicate and each well was counted in triplicate every 24 hours for 5 days using trypan blue exclusion.

The subject of experiment [3] is TF-1 CALR^del61 cells, lacking TpoR. Briefly: Cell proliferation, trypan blue exclusion. The settings on record: 2 ng/ml GM-CSF; 10 or 20 μg/mL. How it is done: as §1, §2
The test system of experiment [4] is TF-1 cells with overexpression of wild type CALR. Briefly: Cell proliferation, trypan blue exclusion. Conditions: 10 or 20 μg/mL; 10 ng/ml hTPO. How it is done: as §1, §2
For the next experiment, the system named is MARIMO cells. In words: Cell proliferation, trypan blue exclusion. Conditions: 2, 10 or 20 μg/mL. Here is the method: as §1, §2
The test system of experiment [5] is TF-1 expressing the PTPN11 E76K mutation. Briefly: Cell proliferation, trypan blue exclusion. Conditions: 10 or 20 μg/mL. Here is the method: as §1, §2
In experiment [6] the test system is TF-1 CALR^del52 cells, lacking TpoR. Briefly: Cell proliferation, trypan blue exclusion. The settings on record: 2 ng/mL GM-CSF; 10 or 20 μg/mL. How it is done:
as §1, §2

The subject of experiment [7] is TF-1 TpoR CALR^del61 cells. Briefly: Flow cytometry of 4D7 binding to the cell surface, mutant CALR cells. The settings on record: PE-conjugated 4D7; vs unstained or isotype-PE control. How it is done: TF-1 cells expressing TpoR and mutant CALR were incubated for 30 minutes 4D7 conjugated to phycoerthryin (PE) (Abcam, #AB102918) or IgG2a PE isotype control (ThermoFisher #12-4321-42) at the concentrations specified after pre-incubation with mouse serum. Cells were washed 1 × before analysis on a CytoFLEX (Beckman Coulter).

B1: 4D7: rat monoclonal IgG2a antibody against the mutant CALR neoepitope; VH SEQ ID NO: 5, VL SEQ ID NO: 7 (antibody, listed as Rattus rattus, V domains shown)
VH: QVQLQQSGAELAKPGSSVKISCKASGYTFTNYDMSWIKQRPGQALEWIGAINPGNGVTDYNEKFRGKATLTVDKSSSTAFMQLSSLTPEDTAVYHCAREYRDNYGYFDYWGQGVMVTVSS
VL: DIVLTQTPVSLSVTLGDQASISCRSSQSLEYSDGYTYLDWFLQKPGQSPQLLIYEVSSRFSGVPDRFIGRGSGTDFTLKISRVEPEDLGVYYCFQATHDPFTFGSGTKLEIK
Regarding B1, the “binding to the cell surface” value was “but not wild type TF-1 TpoR expressing cells” in experiment [1] and “Specific binding” in experiment [7]. For the same molecule, in experiment [2], the “time at which caspase 3 cleavage occurred” value is no more than 24 h. Moreover, the “time at which caspase 3 cleavage peaked” value in experiment [2] came out at 48 h. Besides, the inhibition of proliferation result with JAK2 V617F SET2 cells is recorded as “no inhibition”; in experiment [4] it was “No inhibition”; with MARIMO cells, “did not show inhibition”; in experiment [5], “no inhibition”. Besides, the effect on proliferation entry in experiment [3] and in experiment [6] was “unaffected” each time.
